Data published in the RNAGym collection of RNA variant scans (doi:10.7554/elife.80360).

B1: HDV Ribozyme (parent)
chain: GGCCGGCAUGGUCCCAGCCUCCUCGCUGGCGCCGGCUGGGCAACAUUCCGAGGGGACCGUCCCCUCGGUAAUGGCGAAUGGGACCCA

Variants of: B1
Test: self-cleavage, relative activity (ratio to wild type); higher = more cleavage; co-transcriptional

Variant	self-cleavage
GGCCGGCAUGGUCCCAGCCUCCUCGCUGGCGCCGGCUGGGCAACAUUCCGAGGGGACCGUCCCCUCGGUAAUGGCUAAUGGGAUCCA	1.11
GGCCGGCAUGGUCCCAGCCUCCUCGCUGGCGCCGGCUGGGCAACAUUCCGAGGGGACCGUCCCCUCGGUAAUGGCUAAUGGGAACCA	0.906
GGCCGGCAUGGUCCCAGCCUCCUCGCUGGCGCCGGCUGGGCAACAUUCCGAGGGGACCGUCCCCUCGGUAAUGGCUAAUGGGAGCCA	1.05
GGCCGGCAUGGUCCCAGCCUCCUCGCUGGCGCCGGCUGGGCAACAUUCCGAGGGGACCGUCCCCUCGGUAAUGGCGCAUGGGACUCA	0.192
GGCCGGCAUGGUCCCAGCCUCCUCGCUGGCGCCGGCUGGGCAACAUUCCGAGGGGACCGUCCCCUCGGUAAUGGCGGAUGGGACCCU	0.851
GGCCGGCAUGGUCCCAGCCUCCUCGCUGGCGCCGGCUGGGCAACAUUCCGAGGGGACCGUCCCCUCGGUAAUGGCUCAUGGGACCCA	0.295
GGCCGGCAUGGUCCCAGCCUCCUCGCUGGCGCCGGCUGGGCAACAUUCCGAGGGGACCGUCCCCUCGGUAAUGGCGGUUGGGACCCA	0.266
GGCCGGCAUGGUCCCAGCCUCCUCGCUGGCGCCGGCUGGGCAACAUUCCGAGGGGACCGUCCCCUCGGUAAUGGCGGCUGGGACCCA	0.172
GGCCGGCAUGGUCCCAGCCUCCUCGCUGGCGCCGGCUGGGCAACAUUCCGAGGGGACCGUCCCCUCGGUAAUGGCGGGUGGGACCCA	0.277
GGCCGGCAUGGUCCCAGCCUCCUCGCUGGCGCCGGCUGGGCAACAUUCCGAGGGGACCGUCCCCUCGGUAAUGGCGGAUGGGCCCCA	0.208
GGCCGGCAUGGUCCCAGCCUCCUCGCUGGCGCCGGCUGGGCAACAUUCCGAGGGGACCGUCCCCUCGGUAAUGGCGGAUGGGUCCCA	0.635
GGCCGGCAUGGUCCCAGCCUCCUCGCUGGCGCCGGCUGGGCAACAUUCCGAGGGGACCGUCCCCUCGGUAAUGGCGGAUGGGAUCCA	0.631
GGCCGGCAUGGUCCCAGCCUCCUCGCUGGCGCCGGCUGGGCAACAUUCCGAGGGGACCGUCCCCUCGGUAAUGGCGCAUUGGACCCA	0.219
GGCCGGCAUGGUCCCAGCCUCCUCGCUGGCGCCGGCUGGGCAACAUUCCGAGGGGACCGUCCCCUCGGUAAUGGCUAAUGUGACCCA	0.462
GGCCGGCAUGGUCCCAGCCUCCUCGCUGGCGCCGGCUGGGCAACAUUCCGAGGGGACCGUCCCCUCGGUAAUGGCUAAUGCGACCCA	0.628
GGCCGGCAUGGUCCCAGCCUCCUCGCUGGCGCCGGCUGGGCAACAUUCCGAGGGGACCGUCCCCUCGGUAAUGGCGCAUGGGGCCCA	0.156
GGCCGGCAUGGUCCCAGCCUCCUCGCUGGCGCCGGCUGGGCAACAUUCCGAGGGGACCGUCCCCUCGGUAAUGGCGCAUGGGUCCCA	0.312
GGCCGGCAUGGUCCCAGCCUCCUCGCUGGCGCCGGCUGGGCAACAUUCCGAGGGGACCGUCCCCUCGGUAAUGGCCAAUCGGACCCA	0.093
GGCCGGCAUGGUCCCAGCCUCCUCGCUGGCGCCGGCUGGGCAACAUUCCGAGGGGACCGUCCCCUCGGUAAUGGCCAAUAGGACCCA	0.394
GGCCGGCAUGGUCCCAGCCUCCUCGCUGGCGCCGGCUGGGCAACAUUCCGAGGGGACCGUCCCCUCGGUAAUGGCGCAGGGGACCCA	0.151
GGCCGGCAUGGUCCCAGCCUCCUCGCUGGCGCCGGCUGGGCAACAUUCCGAGGGGACCGUCCCCUCGGUAAUGGCGCACGGGACCCA	0.138
GGCCGGCAUGGUCCCAGCCUCCUCGCUGGCGCCGGCUGGGCAACAUUCCGAGGGGACCGUCCCCUCGGUAAUGGCGCAAGGGACCCA	0.297

Variant	self-cleavage
GGCCGGCAUGGUCCCAGCCUCCUCGCUGGCGCCGGCUGGGCAACAUUCCGAGGGGACCGUCCCCUCGGUAAUGGCUAAGGGGACCCA	0.91
GGCCGGCAUGGUCCCAGCCUCCUCGCUGGCGCCGGCUGGGCAACAUUCCGAGGGGACCGUCCCCUCGGUAAUGGCUAACGGGACCCA	0.782
GGCCGGCAUGGUCCCAGCCUCCUCGCUGGCGCCGGCUGGGCAACAUUCCGAGGGGACCGUCCCCUCGGUAAUGGCGCUUGGGACCCA	0.208
GGCCGGCAUGGUCCCAGCCUCCUCGCUGGCGCCGGCUGGGCAACAUUCCGAGGGGACCGUCCCCUCGGUAAUGGCAAAUGGCACCCA	0.214
GGCCGGCAUGGUCCCAGCCUCCUCGCUGGCGCCGGCUGGGCAACAUUCCGAGGGGACCGUCCCCUCGGUAAUGGCAAAUGGAACCCA	0.35
GGCCGGCAUGGUCCCAGCCUCCUCGCUGGCGCCGGCUGGGCAACAUUCCGAGGGGACCGUCCCCUCGGUAAUGGCAAAUGGUACCCA	0.601
GGCCGGCAUGGUCCCAGCCUCCUCGCUGGCGCCGGCUGGGCAACAUUCCGAGGGGACCGUCCCCUCGGUAAUGGCGCAUGUGACCCA	0.116
GGCCGGCAUGGUCCCAGCCUCCUCGCUGGCGCCGGCUGGGCAACAUUCCGAGGGGACCGUCCCCUCGGUAAUGGCGCAUGAGACCCA	0.173
GGCCGGCAUGGUCCCAGCCUCCUCGCUGGCGCCGGCUGGGCAACAUUCCGAGGGGACCGUCCCCUCGGUAAUGGCCACUGGGACCCA	0.192
GGCCGGCAUGGUCCCAGCCUCCUCGCUGGCGCCGGCUGGGCAACAUUCCGAGGGGACCGUCCCCUCGGUAAUGGCCAGUGGGACCCA	0.944
GGCCGGCAUGGUCCCAGCCUCCUCGCUGGCGCCGGCUGGGCAACAUUCCGAGGGGACCGUCCCCUCGGUAAUGGCGCAUGGGACCCC	0.391
GGCCGGCAUGGUCCCAGCCUCCUCGCUGGCGCCGGCUGGGCAACAUUCCGAGGGGACCGUCCCCUCGGUAAUGGCCAAUGGGACCCC	1.08
GGCCGGCAUGGUCCCAGCCUCCUCGCUGGCGCCGGCUGGGCAACAUUCCGAGGGGACCGUCCCCUCGGUAAUGGCUAAUGGGACCGA	1.09
GGCCGGCAUGGUCCCAGCCUCCUCGCUGGCGCCGGCUGGGCAACAUUCCGAGGGGACCGUCCCCUCGGUAAUGGCUAAUGGGACCAA	0.615
GGCCGGCAUGGUCCCAGCCUCCUCGCUGGCGCCGGCUGGGCAACAUUCCGAGGGGACCGUCCCCUCGGUAAUGGCCAAUGGGCCCCA	0.201
GGCCGGCAUGGUCCCAGCCUCCUCGCUGGCGCCGGCUGGGCAACAUUCCGAGGGGACCGUCCCCUCGGUAAUGGCAAAAGGGACCCA	0.831
GGCCGGCAUGGUCCCAGCCUCCUCGCUGGCGCCGGCUGGGCAACAUUCCGAGGGGACCGUCCCCUCGGUAAUGGCGGAUGGGACCUA	0.886
GGCCGGCAUGGUCCCAGCCUCCUCGCUGGCGCCGGCUGGGCAACAUUCCGAGGGGACCGUCCCCUCGGUAAUGGCCAAUGGUACCCA	0.326
GGCCGGCAUGGUCCCAGCCUCCUCGCUGGCGCCGGCUGGGCAACAUUCCGAGGGGACCGUCCCCUCGGUAAUGGCCAAUGGGAUCCA	1.04
GGCCGGCAUGGUCCCAGCCUCCUCGCUGGCGCCGGCUGGGCAACAUUCCGAGGGGACCGUCCCCUCGGUAAUGGCCAAUGGGAACCA	1.19
GGCCGGCAUGGUCCCAGCCUCCUCGCUGGCGCCGGCUGGGCAACAUUCCGAGGGGACCGUCCCCUCGGUAAUGGCUACUGGGACCCA	0.219
GGCCGGCAUGGUCCCAGCCUCCUCGCUGGCGCCGGCUGGGCAACAUUCCGAGGGGACCGUCCCCUCGGUAAUGGCUAUUGGGACCCA	0.475

Variant	self-cleavage
GGCCGGCAUGGUCCCAGCCUCCUCGCUGGCGCCGGCUGGGCAACAUUCCGAGGGGACCGUCCCCUCGGUAAUGGCGGAUUGGACCCA	0.244
GGCCGGCAUGGUCCCAGCCUCCUCGCUGGCGCCGGCUGGGCAACAUUCCGAGGGGACCGUCCCCUCGGUAAUGGCUAAUGGCACCCA	0.277
GGCCGGCAUGGUCCCAGCCUCCUCGCUGGCGCCGGCUGGGCAACAUUCCGAGGGGACCGUCCCCUCGGUAAUGGCUAAUGGAACCCA	0.343
GGCCGGCAUGGUCCCAGCCUCCUCGCUGGCGCCGGCUGGGCAACAUUCCGAGGGGACCGUCCCCUCGGUAAUGGCUAAUGGGACCCU	1.04
GGCCGGCAUGGUCCCAGCCUCCUCGCUGGCGCCGGCUGGGCAACAUUCCGAGGGGACCGUCCCCUCGGUAAUGGCCCAUGGGACCCA	0.104
GGCCGGCAUGGUCCCAGCCUCCUCGCUGGCGCCGGCUGGGCAACAUUCCGAGGGGACCGUCCCCUCGGUAAUGGCUAAUUGGACCCA	0.407
GGCCGGCAUGGUCCCAGCCUCCUCGCUGGCGCCGGCUGGGCAACAUUCCGAGGGGACCGUCCCCUCGGUAAUGGCUAAUCGGACCCA	0.204
GGCCGGCAUGGUCCCAGCCUCCUCGCUGGCGCCGGCUGGGCAACAUUCCGAGGGGACCGUCCCCUCGGUAAUGGCUAAUAGGACCCA	0.595
GGCCGGCAUGGUCCCAGCCUCCUCGCUGGCGCCGGCUGGGCAACAUUCCGAGGGGACCGUCCCCUCGGUAAUGGCCAAUGAGACCCA	0.499
GGCCGGCAUGGUCCCAGCCUCCUCGCUGGCGCCGGCUGGGCAACAUUCCGAGGGGACCGUCCCCUCGGUAAUGGCGCAUGGGAGCCA	0.317
GGCCGGCAUGGUCCCAGCCUCCUCGCUGGCGCCGGCUGGGCAACAUUCCGAGGGGACCGUCCCCUCGGUAAUGGCCAAUGGGACCGA	0.971
GGCCGGCAUGGUCCCAGCCUCCUCGCUGGCGCCGGCUGGGCAACAUUCCGAGGGGACCGUCCCCUCGGUAAUGGCCAAUGGGACCAA	0.854
GGCCGGCAUGGUCCCAGCCUCCUCGCUGGCGCCGGCUGGGCAACAUUCCGAGGGGACCGUCCCCUCGGUAAUGGCGUUUGGGACCCA	0.259
GGCCGGCAUGGUCCCAGCCUCCUCGCUGGCGCCGGCUGGGCAACAUUCCGAGGGGACCGUCCCCUCGGUAAUGGCGGAUGAGACCCA	0.287
GGCCGGCAUGGUCCCAGCCUCCUCGCUGGCGCCGGCUGGGCAACAUUCCGAGGGGACCGUCCCCUCGGUAAUGGCGGAUGCGACCCA	0.256
GGCCGGCAUGGUCCCAGCCUCCUCGCUGGCGCCGGCUGGGCAACAUUCCGAGGGGACCGUCCCCUCGGUAAUGGCGGAUGUGACCCA	0.348
GGCCGGCAUGGUCCCAGCCUCCUCGCUGGCGCCGGCUGGGCAACAUUCCGAGGGGACCGUCCCCUCGGUAAUGGCUAAUGGGACGCA	1.16
GGCCGGCAUGGUCCCAGCCUCCUCGCUGGCGCCGGCUGGGCAACAUUCCGAGGGGACCGUCCCCUCGGUAAUGGCUAAUGGGACACA	1.05
GGCCGGCAUGGUCCCAGCCUCCUCGCUGGCGCCGGCUGGGCAACAUUCCGAGGGGACCGUCCCCUCGGUAAUGGCUAAUGGGACUCA	1.24
GGCCGGCAUGGUCCCAGCCUCCUCGCUGGCGCCGGCUGGGCAACAUUCCGAGGGGACCGUCCCCUCGGUAAUGGCGCAUGGUACCCA	0.0755
